The assay addresses human corticotropin-releasing factor 2α (CRF2 α receptor) (human), Q13324. The assay is described as follows: cell-based or functional assay.

Starred links: 1 amine or outer side, 2 acyl side, 3 side chain; linkers in the order of their positions; H or OH if unused. Groups on a side chain read outwards from the residue. No end group written: not given here. *: point of attachment. C18 diacid = O=C(O)CCCCCCCCCCCCCCCCC(=O)*; γGlu = O=C(O)[C@H](CCC(=O)[*:2])N[*:1]; AEEA = NCCOCCOCC(=O)O

human corticotropin-releasing factor 2α (CRF2 α receptor) (human), Q13324, sequence (Q13324 20-411): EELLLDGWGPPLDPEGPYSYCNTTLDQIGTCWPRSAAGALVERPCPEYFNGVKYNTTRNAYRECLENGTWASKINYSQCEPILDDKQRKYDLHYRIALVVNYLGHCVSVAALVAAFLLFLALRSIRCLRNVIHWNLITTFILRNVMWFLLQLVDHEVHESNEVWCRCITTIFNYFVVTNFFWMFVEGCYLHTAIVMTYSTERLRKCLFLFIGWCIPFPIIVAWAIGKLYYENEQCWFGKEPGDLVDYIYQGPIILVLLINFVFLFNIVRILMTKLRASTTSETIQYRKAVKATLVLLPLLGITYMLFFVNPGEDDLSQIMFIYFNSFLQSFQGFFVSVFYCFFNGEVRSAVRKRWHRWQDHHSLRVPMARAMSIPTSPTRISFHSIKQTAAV

B1: SEQ ID NO: 55 (peptide)
peptide: FTLSLDVPTKIK([AEEA-AEEA-γGlu-C18 diacid])QILLKQQKQKKERQKAETNVQLLERV-NH2
modifications: N-terminus assumed
SMILES: CC[C@H](C)[C@H](NC(=O)[C@H](CCC(N)=O)NC(=O)[C@H](CCCCNC(=O)COCCOCCNC(=O)COCCOCCNC(=O)CC[C@H](NC(=O)CCCCCCCCCCCCCCCCC(=O)O)C(=O)O)NC(=O)[C@@H](NC(=O)[C@H](CCCCN)NC(=O)[C@@H](NC(=O)[C@@H]1CCCN1C(=O)[C@@H](NC(=O)[C@H](CC(=O)O)NC(=O)[C@H](CC(C)C)NC(=O)[C@H](CO)NC(=O)[C@H](CC(C)C)NC(=O)[C@@H](NC(=O)[C@@H](N)Cc1ccccc1)[C@@H](C)O)C(C)C)[C@@H](C)O)[C@@H](C)CC)C(=O)N[C@@H](CC(C)C)C(=O)N[C@@H](CC(C)C)C(=O)N[C@@H](CCCCN)C(=O)N[C@@H](CCC(N)=O)C(=O)N[C@@H](CCC(N)=O)C(=O)N[C@@H](CCCCN)C(=O)N[C@@H](CCC(N)=O)C(=O)N[C@@H](CCCCN)C(=O)N[C@@H](CCCCN)C(=O)N[C@@H](CCC(=O)O)C(=O)N[C@@H](CCCNC(=N)N)C(=O)N[C@@H](CCC(N)=O)C(=O)N[C@@H](CCCCN)C(=O)N[C@@H](C)C(=O)N[C@@H](CCC(=O)O)C(=O)N[C@H](C(=O)N[C@@H](CC(N)=O)C(=O)N[C@H](C(=O)N[C@@H](CCC(N)=O)C(=O)N[C@@H](CC(C)C)C(=O)N[C@@H](CC(C)C)C(=O)N[C@@H](CCC(=O)O)C(=O)N[C@@H](CCCNC(=N)N)C(=O)N[C@H](C(N)=O)C(C)C)C(C)C)[C@@H](C)O
B1 returned an EC50 [nM], 0% HSA of 48.5 nM.

B2: SEQ ID NO: 59 (peptide)
peptide: FTLSLDVPTKIKQILLKQQKQKKERQQAEKNKQLLEQI-NH2
modifications: not fully specified (residue 12); printed as FTLSLDVPTKIK*QILLKQQKQKKERQQAEKNKQLLEQI-NH2
In turn, B2 registered an EC50 [nM], 0% HSA of 0.15 nM and an EC50 [nM], 0.1% HSA of 17.4 nM.

B3: SEQ ID NO: 52 (peptide)
peptide: FTLSLDVPTKIK([AEEA-AEEA-γGlu-C18 diacid])QILLKQQKQKKERQQAEKNKQLLERV-NH2
modifications: N-terminus assumed
SMILES: CC[C@H](C)[C@H](NC(=O)[C@H](CCC(N)=O)NC(=O)[C@H](CCCCNC(=O)COCCOCCNC(=O)COCCOCCNC(=O)CC[C@H](NC(=O)CCCCCCCCCCCCCCCCC(=O)O)C(=O)O)NC(=O)[C@@H](NC(=O)[C@H](CCCCN)NC(=O)[C@@H](NC(=O)[C@@H]1CCCN1C(=O)[C@@H](NC(=O)[C@H](CC(=O)O)NC(=O)[C@H](CC(C)C)NC(=O)[C@H](CO)NC(=O)[C@H](CC(C)C)NC(=O)[C@@H](NC(=O)[C@@H](N)Cc1ccccc1)[C@@H](C)O)C(C)C)[C@@H](C)O)[C@@H](C)CC)C(=O)N[C@@H](CC(C)C)C(=O)N[C@@H](CC(C)C)C(=O)N[C@@H](CCCCN)C(=O)N[C@@H](CCC(N)=O)C(=O)N[C@@H](CCC(N)=O)C(=O)N[C@@H](CCCCN)C(=O)N[C@@H](CCC(N)=O)C(=O)N[C@@H](CCCCN)C(=O)N[C@@H](CCCCN)C(=O)N[C@@H](CCC(=O)O)C(=O)N[C@@H](CCCNC(=N)N)C(=O)N[C@@H](CCC(N)=O)C(=O)N[C@@H](CCC(N)=O)C(=O)N[C@@H](C)C(=O)N[C@@H](CCC(=O)O)C(=O)N[C@@H](CCCCN)C(=O)N[C@@H](CC(N)=O)C(=O)N[C@@H](CCCCN)C(=O)N[C@@H](CCC(N)=O)C(=O)N[C@@H](CC(C)C)C(=O)N[C@@H](CC(C)C)C(=O)N[C@@H](CCC(=O)O)C(=O)N[C@@H](CCCNC(=N)N)C(=O)N[C@H](C(N)=O)C(C)C
Molecule B3 registered an EC50 [nM], 0% HSA of 0.7 nM and an EC50 [nM], 0.1% HSA of 45.8 nM.

B4: SEQ ID NO: 56 (peptide)
peptide: FTLSLDVPIGLK([AEEA-AEEA-γGlu-C18 diacid])QILLKQQKQKKERQQAETNVQLLERV-NH2
modifications: N-terminus assumed
SMILES: CC[C@H](C)[C@H](NC(=O)[C@H](CCC(N)=O)NC(=O)[C@H](CCCCNC(=O)COCCOCCNC(=O)COCCOCCNC(=O)CC[C@H](NC(=O)CCCCCCCCCCCCCCCCC(=O)O)C(=O)O)NC(=O)[C@H](CC(C)C)NC(=O)CNC(=O)[C@@H](NC(=O)[C@@H]1CCCN1C(=O)[C@@H](NC(=O)[C@H](CC(=O)O)NC(=O)[C@H](CC(C)C)NC(=O)[C@H](CO)NC(=O)[C@H](CC(C)C)NC(=O)[C@@H](NC(=O)[C@@H](N)Cc1ccccc1)[C@@H](C)O)C(C)C)[C@@H](C)CC)C(=O)N[C@@H](CC(C)C)C(=O)N[C@@H](CC(C)C)C(=O)N[C@@H](CCCCN)C(=O)N[C@@H](CCC(N)=O)C(=O)N[C@@H](CCC(N)=O)C(=O)N[C@@H](CCCCN)C(=O)N[C@@H](CCC(N)=O)C(=O)N[C@@H](CCCCN)C(=O)N[C@@H](CCCCN)C(=O)N[C@@H](CCC(=O)O)C(=O)N[C@@H](CCCNC(=N)N)C(=O)N[C@@H](CCC(N)=O)C(=O)N[C@@H](CCC(N)=O)C(=O)N[C@@H](C)C(=O)N[C@@H](CCC(=O)O)C(=O)N[C@H](C(=O)N[C@@H](CC(N)=O)C(=O)N[C@H](C(=O)N[C@@H](CCC(N)=O)C(=O)N[C@@H](CC(C)C)C(=O)N[C@@H](CC(C)C)C(=O)N[C@@H](CCC(=O)O)C(=O)N[C@@H](CCCNC(=N)N)C(=O)N[C@H](C(N)=O)C(C)C)C(C)C)[C@@H](C)O
Molecule B4 returned an EC50 [nM], 0% HSA of 22.9 nM.

B5: SEQ ID NO: 57 (peptide)
peptide: FTLSLDVPIGLK([AEEA-AEEA-γGlu-C18 diacid])QILLKQQKQKKERQKAETNVQLLERV-NH2
modifications: N-terminus assumed
SMILES: CC[C@H](C)[C@H](NC(=O)[C@H](CCC(N)=O)NC(=O)[C@H](CCCCNC(=O)COCCOCCNC(=O)COCCOCCNC(=O)CC[C@H](NC(=O)CCCCCCCCCCCCCCCCC(=O)O)C(=O)O)NC(=O)[C@H](CC(C)C)NC(=O)CNC(=O)[C@@H](NC(=O)[C@@H]1CCCN1C(=O)[C@@H](NC(=O)[C@H](CC(=O)O)NC(=O)[C@H](CC(C)C)NC(=O)[C@H](CO)NC(=O)[C@H](CC(C)C)NC(=O)[C@@H](NC(=O)[C@@H](N)Cc1ccccc1)[C@@H](C)O)C(C)C)[C@@H](C)CC)C(=O)N[C@@H](CC(C)C)C(=O)N[C@@H](CC(C)C)C(=O)N[C@@H](CCCCN)C(=O)N[C@@H](CCC(N)=O)C(=O)N[C@@H](CCC(N)=O)C(=O)N[C@@H](CCCCN)C(=O)N[C@@H](CCC(N)=O)C(=O)N[C@@H](CCCCN)C(=O)N[C@@H](CCCCN)C(=O)N[C@@H](CCC(=O)O)C(=O)N[C@@H](CCCNC(=N)N)C(=O)N[C@@H](CCC(N)=O)C(=O)N[C@@H](CCCCN)C(=O)N[C@@H](C)C(=O)N[C@@H](CCC(=O)O)C(=O)N[C@H](C(=O)N[C@@H](CC(N)=O)C(=O)N[C@H](C(=O)N[C@@H](CCC(N)=O)C(=O)N[C@@H](CC(C)C)C(=O)N[C@@H](CC(C)C)C(=O)N[C@@H](CCC(=O)O)C(=O)N[C@@H](CCCNC(=N)N)C(=O)N[C@H](C(N)=O)C(C)C)C(C)C)[C@@H](C)O
The molecule B5 came in with an EC50 [nM], 0% HSA of 38.8 nM.

B6: SEQ ID NO: 58 (peptide)
peptide: FTLSLDVPTKIKQILFKQQKQKKERQQAEKNKQLLEQI-NH2
modifications: not fully specified (residue 12); printed as FTLSLDVPTKIK*QILFKQQKQKKERQQAEKNKQLLEQI-NH2
As to B6, the EC50 [nM], 0% HSA amounted to 0.28 nM.

B7: SEQ ID NO: 54 (peptide)
peptide: FTLSLDVPIKLK([AEEA-AEEA-γGlu-C18 diacid])QILLKQQKQKKERQQAETNVQLLERV-NH2
modifications: N-terminus assumed
SMILES: CC[C@H](C)[C@H](NC(=O)[C@H](CCC(N)=O)NC(=O)[C@H](CCCCNC(=O)COCCOCCNC(=O)COCCOCCNC(=O)CC[C@H](NC(=O)CCCCCCCCCCCCCCCCC(=O)O)C(=O)O)NC(=O)[C@H](CC(C)C)NC(=O)[C@H](CCCCN)NC(=O)[C@@H](NC(=O)[C@@H]1CCCN1C(=O)[C@@H](NC(=O)[C@H](CC(=O)O)NC(=O)[C@H](CC(C)C)NC(=O)[C@H](CO)NC(=O)[C@H](CC(C)C)NC(=O)[C@@H](NC(=O)[C@@H](N)Cc1ccccc1)[C@@H](C)O)C(C)C)[C@@H](C)CC)C(=O)N[C@@H](CC(C)C)C(=O)N[C@@H](CC(C)C)C(=O)N[C@@H](CCCCN)C(=O)N[C@@H](CCC(N)=O)C(=O)N[C@@H](CCC(N)=O)C(=O)N[C@@H](CCCCN)C(=O)N[C@@H](CCC(N)=O)C(=O)N[C@@H](CCCCN)C(=O)N[C@@H](CCCCN)C(=O)N[C@@H](CCC(=O)O)C(=O)N[C@@H](CCCNC(=N)N)C(=O)N[C@@H](CCC(N)=O)C(=O)N[C@@H](CCC(N)=O)C(=O)N[C@@H](C)C(=O)N[C@@H](CCC(=O)O)C(=O)N[C@H](C(=O)N[C@@H](CC(N)=O)C(=O)N[C@H](C(=O)N[C@@H](CCC(N)=O)C(=O)N[C@@H](CC(C)C)C(=O)N[C@@H](CC(C)C)C(=O)N[C@@H](CCC(=O)O)C(=O)N[C@@H](CCCNC(=N)N)C(=O)N[C@H](C(N)=O)C(C)C)C(C)C)[C@@H](C)O
B7: the EC50 [nM], 0% HSA was determined as 0.57 nM and the EC50 [nM], 0.1% HSA was 24.5 nM.

B8: SEQ ID NO: 53 (peptide)
peptide: FTLSLDVPTKIK([AEEA-AEEA-γGlu-C18 diacid])QILLKQQKQKKERQQAETNKQLLERV-NH2
modifications: N-terminus assumed
SMILES: CC[C@H](C)[C@H](NC(=O)[C@H](CCC(N)=O)NC(=O)[C@H](CCCCNC(=O)COCCOCCNC(=O)COCCOCCNC(=O)CC[C@H](NC(=O)CCCCCCCCCCCCCCCCC(=O)O)C(=O)O)NC(=O)[C@@H](NC(=O)[C@H](CCCCN)NC(=O)[C@@H](NC(=O)[C@@H]1CCCN1C(=O)[C@@H](NC(=O)[C@H](CC(=O)O)NC(=O)[C@H](CC(C)C)NC(=O)[C@H](CO)NC(=O)[C@H](CC(C)C)NC(=O)[C@@H](NC(=O)[C@@H](N)Cc1ccccc1)[C@@H](C)O)C(C)C)[C@@H](C)O)[C@@H](C)CC)C(=O)N[C@@H](CC(C)C)C(=O)N[C@@H](CC(C)C)C(=O)N[C@@H](CCCCN)C(=O)N[C@@H](CCC(N)=O)C(=O)N[C@@H](CCC(N)=O)C(=O)N[C@@H](CCCCN)C(=O)N[C@@H](CCC(N)=O)C(=O)N[C@@H](CCCCN)C(=O)N[C@@H](CCCCN)C(=O)N[C@@H](CCC(=O)O)C(=O)N[C@@H](CCCNC(=N)N)C(=O)N[C@@H](CCC(N)=O)C(=O)N[C@@H](CCC(N)=O)C(=O)N[C@@H](C)C(=O)N[C@@H](CCC(=O)O)C(=O)N[C@H](C(=O)N[C@@H](CC(N)=O)C(=O)N[C@@H](CCCCN)C(=O)N[C@@H](CCC(N)=O)C(=O)N[C@@H](CC(C)C)C(=O)N[C@@H](CC(C)C)C(=O)N[C@@H](CCC(=O)O)C(=O)N[C@@H](CCCNC(=N)N)C(=O)N[C@H](C(N)=O)C(C)C)[C@@H](C)O
The molecule B8 returned an EC50 [nM], 0% HSA of 1.01 nM and an EC50 [nM], 0.1% HSA of 55.1 nM.

(Values after patent US12679878B2, “CRF2 receptor agonists and their use in therapy” (SANOFI, priority 2020, dated 2026).)
